Consider seven molecules from patent US20220153790A1 (TECHNISCHE UNIVERSIT T M NCHEN, published 2022).

The target in assay [1] is T1, fully glycosylated, monobiotinylated extracellular domain of human CD98hc produced in HEK 293E cells (human, UniProt P08195 111-529, N-linked glycosylation at Asn264, 280, 323 and 405 (UniProt P08195-2); single biotin on the N-terminal BAP).
T1 construct: also called hCD98hcEDg; CD98hcEDg; not shown: N-terminal His6 tag and biotin acceptor peptide (BAP) from pDSG-BM-His6-BAP-hCD98hcEDg
T1 sequence: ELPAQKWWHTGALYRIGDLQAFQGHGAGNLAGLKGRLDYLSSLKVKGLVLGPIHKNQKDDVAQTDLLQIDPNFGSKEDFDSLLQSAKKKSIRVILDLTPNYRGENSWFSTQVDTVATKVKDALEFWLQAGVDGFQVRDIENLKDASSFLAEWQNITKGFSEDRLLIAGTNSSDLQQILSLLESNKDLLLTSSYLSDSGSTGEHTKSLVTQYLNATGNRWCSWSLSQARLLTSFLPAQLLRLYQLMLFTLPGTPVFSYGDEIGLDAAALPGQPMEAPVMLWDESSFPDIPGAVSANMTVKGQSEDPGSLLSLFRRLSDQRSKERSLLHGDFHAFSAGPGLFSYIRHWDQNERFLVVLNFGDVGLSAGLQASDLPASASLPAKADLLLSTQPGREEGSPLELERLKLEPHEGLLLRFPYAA
Kind of assay: SPR, complex dissociation half-life. The protocol:
(§1) Real time surface plasmon resonance (SPR) spectroscopy was performed on a BIAcore 2000 system (BIAcore, Uppsala, Sweden) at 25° C. using HBS-T (20 mM Hepes/NaOH pH 7.5, 150 mM NaCl, 0.005% v/v Tween20) as running buffer. The purified biotinylated m/hCD98hcED (3 μg/ml protein solution in HBS-T produced in HEK cells or E. coli) was immobilized (ARU-225) via streptavidin on a CAP sensorchip of the Biotin CAPture kit (GE Healthcare). SPR single cycle kinetic experiments were performed using five consecutive injections of a 1:2 dilution series of the purified lipocalin variant at a flow rate of 25 μl/min, with 288 s contact time and 3500 s dissociation time after the fifth injection. For multi cycle kinetic experiments, eight samples from a consecutive 1:2 dilution series of the purified lipocalin variant were measured. Rate constants of association and dissociation were calculated from reference-corrected sensorgrams by fitting to a global 1:1 Langmuir binding model using BIAevaluation software (BIAcore). The equilibrium dissociation constants (KD value) were calculated as the quotient koff/kₒₙ. To test competitive binding of the lipocalin variants P3D11, P3A12 and P1E4 to glycosylated hCD98hcED, 100 nM of P3D11 was first injected and followed by a subsequent injection of either 100 nM P3A12 or 100 nM P1E4. HBS-T injections served as negative control.

Assay [2] addresses T2, unglycosylated, monobiotinylated extracellular domain of human CD98hc produced in E. coli (human, UniProt P08195 111-529, single biotin on the N-terminal biotin acceptor peptide (BAP)).
T2 construct: also called hCD98hcED; CD98hcED; not shown: N-terminal biotin acceptor peptide (BAP) from pASK-IBA5(+)-BAP-hCD98hcED
T2 sequence: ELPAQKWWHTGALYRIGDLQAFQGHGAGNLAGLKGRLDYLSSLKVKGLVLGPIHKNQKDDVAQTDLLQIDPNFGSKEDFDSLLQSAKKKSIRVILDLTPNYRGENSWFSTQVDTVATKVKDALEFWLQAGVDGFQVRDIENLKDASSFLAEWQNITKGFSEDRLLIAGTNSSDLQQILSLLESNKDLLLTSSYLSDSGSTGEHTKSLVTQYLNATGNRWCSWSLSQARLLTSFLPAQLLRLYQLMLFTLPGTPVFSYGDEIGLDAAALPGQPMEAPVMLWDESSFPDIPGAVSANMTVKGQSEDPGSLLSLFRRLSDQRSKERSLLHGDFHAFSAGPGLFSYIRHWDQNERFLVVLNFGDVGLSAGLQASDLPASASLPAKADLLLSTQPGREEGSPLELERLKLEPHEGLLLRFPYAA
Description: SPR, complex dissociation half-life. How it is done:
as §1
On the technique in general: In SPR one partner is held on a chip, and binding of the other changes the refractive index at the surface.

Assay [3] concerns the target T2, unglycosylated, monobiotinylated …. Description: SPR (BIAcore 2000), biotinylated hCD98hcED captured on CAP chip, single cycle kinetics. How it is done: as §1
For assay [4], the target named is T1, fully glycosylated, monobiotinylated …. Kind of assay: SPR, biotinylated hCD98hcEDg captured on CAP chip. The protocol:
as §1

For assay [5] the target is unchanged.
Assay: not given

Assay [6] concerns the target T2, unglycosylated, monobiotinylated …. Kind of assay: SPR. The protocol: as §1
The target in assay [7] is T1, fully glycosylated, monobiotinylated …. Kind of assay: flow cytometry, soluble hCD98hcEDg at 10-fold molar excess as competitor of cell binding. The protocol:
Cells growing in suspension (Ramos, Raji and SU-DHL-4) were directly washed with PBS (w/o Ca²⁺ and Mg²⁺). For each measurement, 250,000 viable cells were resuspended in 250 μl FACS buffer (PBS+10% (v/v) FBS) containing 1 μM D11vs-PAS200-Cy5.5 (cf. Supplementary information) and incubated for 1 h at 4° C. Competition experiments were performed by adding a 10-fold molar concentration of either unlabeled D11vs-PAS200 or the soluble glycosylated hCD98hcED. After incubation, cells were washed three times in PBS and finally resuspended in 250 μl FACS buffer. Flow cytofluorometric experiments were performed on a FACSAria Ilu instrument using an excitation wavelength of 650 nm and an emission band-path filter of 780/60 nm.
As expected, no fluorescence staining for any of the tested cell lines was detected when using the Cy5.5-labeled PASylated wtLcn2.
(In general: A flow cytometer gives signals particle by particle.)

The target in assay [8] is T2, unglycosylated, monobiotinylated …. Description: single clone flow cytometry of E. coli displaying the lipocalin, 1 nM biotinylated hCD98hcED, mean PE fluorescence. How it is done:
(§2) The bacterial lawn was scraped from the plate(s), resuspended in 50 ml LB/Amp medium, followed by inoculation to an initial OD₅₅₀ of 0.15 at 37° C. Gene expression was induced at OD₅₅₀=0.5 with 10 ng/ml anhydrotetracycline (aTc) for 2.5 h. Approximately 2×10⁸ cells were sedimented and resuspended in PBS with biotinylated hCD98hcED at different concentrations (cycles 1 and 2: 100 nM; cycles 3 and 4: 10 nM; cycles 5 and 6: 1 nM) for 1 h at 4° C. After one washing step with PBS, the bacteria were incubated with 25 μg/ml streptavidin/phycoerythrin (PE) conjugate (Biolegend, San Diego, Calif.) and 3 μM dye-labeled Fab A3C5-DY634 [61] in PBS for 30 min followed by a last washing step in PBS. Bacteria were sorted on a FACSAria Ilu instrument (BD Bioscience, Heidelberg, Germany) using a 488 nm LASER diode with a 585/42 band pass filter or a 633 nm HeNe LASER in combination with a 660/20 band pass filter for excitation/detection of PE and DY634 fluorescence, respectively. Sorted bacteria were plated on LB/Amp agar, incubated at 37° C. for 12 h and then subjected to a new sorting cycle. After BSD cycle 6, single clone analysis was performed by cytofluorimetric analysis of individual colonies. Data were processed using FlowJo v10 software (FlowJo, Ashland, Oreg.). […]

Assay [9] shares this target. Kind of assay: SPR (BIAcore 2000), biotinylated hCD98hcED captured on CAP chip, multiple cycle kinetics. How it is done:
as §1

The target of assay [10] is T1, fully glycosylated, monobiotinylated …. Kind of assay: SPR, comparison of glycosylated and unglycosylated ectodomain. How it is done:
as §1

The target of assay [11] is T2, unglycosylated, monobiotinylated …. Kind of assay: flow cytometry of E. coli displaying the lipocalin; hCD98hcED detected by PE fluorescence, display level by Dy634 fluorescence. The protocol:
as §2

B1: lipocalin variant P3A12 (designed binder)
chain: QDSTSDLIPAPPLSKVPLQQNFQDNQFHGKWYVVGRAGNLGLREDKDPAKMFATIYELKEDKSYNVTYVWFDLKKCKYSIHTFVPGSQPGEFTLGKIKSGPGHTSWLVRVVSTNYNQHAMVFFKWVGQNRENFAITLYGRTKELTSELKENFIRFSKSLGLPENHIVFPVPIDQCIDG
notes: produced soluble in E. coli JM83, monomeric; also called Anticalin P3A12; not shown: C-terminal His6-tag (plasmid pNGAL118)
One may read the Kd as the concentration at which binding is half-saturated. Read a high Kd as lower affinity. As usually defined, the koff is the first-order rate constant of dissociation. Higher therefore signals a short-lived complex. For orientation: kon means a measure of how fast the partners come together. The low end stands for slow association, the high end for fast association. Consider B1, for which the “T1/2” value in [1] turned out to be 0.483 h. Further, the “T½” value in [2] was found to be 1.13 h. In assay [3], the affinity, expressed as Kd, was 2.8 nM; the off-rate constant (koff) amounted to 0.00017 s⁻¹; the kon is 62000 M⁻¹ s⁻¹. Also, in [4], the Kd stood at 1.9 nM, the koff amounted to 0.0004 s⁻¹ and the kon worked out at 220000 M⁻¹ s⁻¹. In [5], this molecule displayed a Kd of at most 200 nM.

B2: lipocalin variant D11vs (designed binder)
chain: QDSTSDLIPAPPLSKVPLQQNFQDNQFHGKWYVVGRAGNTGLREDKDPGKMFATIYELKEDKSYNVTYVWSGQKKCMYSIVTFVPGSQPGEFTLGNIKSAPGRTSWLVRVVSTNYNQHAMVFFKSVTQNREGFAITLYGRTKELTSELKENFIRFSKSLGLPENHIVFPVPIDQCIDG
notes: P3D11 variant with Phe71Ser and Gly81Val; also called Anticalin D11vs; not shown: C-terminal His6-tag (plasmid pNGAL118) as for the other soluble lipocalin variants
With B2, the “T1/2” value in assay [1] was 8.72 h. In [2], the “T½” value worked out at 7.37 h. In assay [3], the affinity, expressed as Kd, was 0.05 nM; the off-rate constant (koff) was 2.6e-05 s⁻¹; the association rate constant (kon) came to 450000 M⁻¹ s⁻¹. For the same molecule, in assay [4], the dissociation constant Kd was 0.05 nM, the koff worked out at 2.2e-05 s⁻¹ and the kon worked out at 460000 M⁻¹ s⁻¹. Also, the “fold increase of affinity against P3D11” value in assay [6] was around 3 fold.

B3: D11vs-PAS200-Cy5.5 (designed binder)
chain: QDSTSDLIPAPPLSKVPLQQNFQDNQFHGKWYVVGRAGNTGLREDKDPGKMFATIYELKEDKSYNVTYVWSGQKKCMYSIVTFVPGSQPGEFTLGNIKSAPGRTSWLVRVVSTNYNQHAMVFFKSVTQNREGFAITLYGRTKELTSELKENFIRFSKSLGLPENHIVFPVPIDQCIDG
modifications: Sulfo-Cyanine5.5 coupled by maleimide chemistry to the engineered C-terminal Cys
notes: also called Cy5.5 labeled PASylated D11vs; Cy5.5-labeled D11vs-PAS200; not shown: C-terminal PAS200 polypeptide (200 Pro, Ala and Ser residues) with an engineered Cys at its end
Regarding B3, in [7], the binding result is on record as “binds”.

B4: lipocalin variant P3D11 (designed binder)
chain: QDSTSDLIPAPPLSKVPLQQNFQDNQFHGKWYVVGRAGNTGLREDKDPGKMFATIYELKEDKSYNVTYVWFGQKKCMYSIGTFVPGSQPGEFTLGNIKSAPGRTSWLVRVVSTNYNQHAMVFFKSVTQNREGFAITLYGRTKELTSELKENFIRFSKSLGLPENHIVFPVPIDQCIDG
notes: produced soluble in E. coli JM83, monomeric; also called Anticalin P3D11; not shown: C-terminal His6-tag (plasmid pNGAL118)
On to B4, for which, in [1], the “T1/2” value is 3.83 h. Also, the “T½” value in assay [2] came to 5.99 h. In assay [3], this molecule displayed a Kd of 0.15 nM, a koff of 3.2e-05 s⁻¹ and a kon of 220000 M⁻¹ s⁻¹. Further, in [4], binding was characterised by a dissociation constant (Kd) of 0.17 nM, the off-rate (koff) worked out at 5e-05 s⁻¹ and the kon was 300000 M⁻¹ s⁻¹. In [5], this molecule showed a Kd of at most 200 nM.

B5: P3D11 variant D11.1 displayed on the E. coli cell surface (designed binder)
chain: QDSTSDLIPAPPLSKVPLQQNFQDNQFHGKWYVVGRAGNTGLREDKDPGKMFATIYELKEDKSYNVTYVWSGQKKCMYSIVTFVPGSQPGEFTLGNIKSAPGQTSWLVRVVSTNYNQHAMVFFKSVTQNREGFAITLYGRTKELTSELKEIFIRFSKSLGLPENHIVFPVPIDQCIDG
notes: One of the variants from error-prone PCR and bacterial surface display; not shown: The display carrier: the A3C5 tag and the engineered beta-domain of the autotransporter EspP (pNGAL146)
As for B5, the binding result in [8] was “binds”.

B6: lipocalin variant P1E4 (designed binder)
chain: QDSTSDLIPAPPLSKVPLQQNFQDNQFHGKWYVVGIAGNSMLREDKDPFKMTATIYELKEDKSYNVTRVRFDDKKCLYRILTFVPGSQPGEFTLGNIKSRPGWTSWLVRVVSTNYNQHAMVFFKRVHQNRETFWITLYGRTKELTSELKENFIRFSKSLGLPENHIVFPVPIDQCIDG
notes: produced soluble in E. coli JM83, monomeric; also called Anticalin P1E4; not shown: C-terminal His6-tag (plasmid pNGAL118)
In the case of B6, the “T1/2” value in assay [1] was below 0.0167 h. Also, the “T½” value in assay [2] came out at 0.0183 h. Further, the results for the Kd in [4], in assay [5] and in [9] were 162 nM, at most 200 nM and 4.5 nM, respectively. Further, the koff in assay [4] came out at 0.09 s⁻¹; in assay [9], 0.011 s⁻¹. For the same molecule, the kon in [4] was 560000 M⁻¹ s⁻¹; in assay [9], 2.5e+06 M⁻¹ s⁻¹. The “fold decrease of binding by N-glycosylation (hCD98hcEDg against hCD98hcED)” value in assay [10] was around 100 fold.

B7: wtLcn2 displayed on the E. coli cell surface (other)
chain: QDSTSDLIPAPPLSKVPLQQNFQDNQFQGKWYVVGLAGNAILREDKDPQKMYATIYELKEDKSYNVTSVLFRKKKCDYWIRTFVPGCQPGEFTLGNIKSYPGLTSYLVRVVSTNYNQHAMVFFKKVSQNREYFKITLYGRTKELTSELKENFIRFSKSLGLPENHIVFPVPIDQCIDG
notes: Control in the single clone FACS analysis; also called wild type Lcn2; not shown: The display carrier: the A3C5 tag and the engineered beta-domain of the autotransporter EspP (pNGAL146)
Turning to B7, the binding result in assay [11] is reported as “no binding (tested: 100 nM hCD98hcED)”.
